How the values were obtained:
IL-1β signaling = assay: IL-1 signaling reporter cell assay (HEK-Blue IL-1β cells), IL-1β; type: cell-based
Protocol: (§1) HEK-Blue IL-1β cells (Invivogen, CA) were harvested and plated in technical duplicates at a density of 50,000 cells per well in a 96-well plate. IL1RAP antibodies, or a corresponding human IgG1 control antibody was added to the wells in a concentration range of […]. After incubating cells with antibodies for 30 minutes, IL-1β was added to a final concentration of 0.5 ng/ml, and the plate was incubated overnight. To examine whether any of the antibodies were able to induce IL-1R activation in the absence of IL-1β, samples were incubated with 10 μg/mL antibody without addition of the ligand. The following day, substrate was added to the supernatants, and samples were analyzed for absorbance at 620 nm.

recombinant human IL1RAP = target: T1, recombinant human IL1RAP (Homo sapiens, UniProt Q9NPH3); assay: Binding competition binning on Octet; conditions: Protein A biosensors
T1 construct: MBP-IL1RAP(S21-T367)-; 8xHis (C); made in house; host or cells: CHO (ExpiCHO transient expression)
Method in brief: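 Protein A biosensors loaded with first antibody (10 ug/mL, 5 min), blocked with irrelevant antibody (100 ug/mL, 5 min). Then exposed to recombinant human IL1RAP (1 min) and a second antibody (1 min). Octet interferometry signal increase indicates non-competing pairs; antibodies assigned to bins.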

IL-1α signaling = assay: IL-1 signaling reporter cell assay, IL-1α; type: cell-based; conditions: serial dilution of antibody
Protocol: as §1
In addition, serial dilution of IL1RAP antibodies was performed to determine EC50 against IL-1β and IL-1α (FIGS. 6B and 6C). Many of these antibodies, including 37E10_15B5 and 44E5_15C5 can block IL-1β and IL-1α signaling with subnanomolar EC50.

IL-33 signaling = IL-33 signaling reporter cell assay (HEK-Blue IL-33 cells); type: cell-based; conditions: antibody 1-10 μg/ml, IL-33 0.5 ng/ml
Protocol: FIGS. 7A and 7B show blockage of IL-33 signaling by anti-IL1RAP antibodies. HEK-Blue IL-33 cells (Invivogen, CA) were harvested and plated in technical duplicates at a density of 50,000 cells per well in a 96-well plate. Antibodies, or a corresponding human IgG1 control antibody, was added to the wells in a serial dilution starting at 10 μg/ml (FIG. 7A), or a concentration of 1 and 10 μg/ml (FIG. 7B). After incubating cells with antibodies for 30 minutes, IL-33 was added to a final concentration of 0.5 ng/ml, and the plate was incubated overnight. 24 hours later, substrate was added to the supernatants, and samples were analyzed for absorbance at 620 nm. CBIgG1 (anti-hen egg lysozyme antibody, CrownBio™) was included as a negative control.
as §1, with “IL-33” for “IL-1β”, “plate.” for “plate. IL1RAP”, “ST2” for “IL-1R”, “IL-33,” for “IL-1β,”

[1] = test system: IL-6 secretion in human whole blood cultures stimulated with HKCA; assay: IL-6 production in human whole blood cultures stimulated with heat-killed Candida albicans; type: cell-based; conditions: 24 hours, 1 μg/ml alone, combination 1 μg/ml BFB759 + 0.5 μg/ml adalimumab
From the text: Materials included Human peripheral blood drawn from 5 healthy donors. Materials also included Anti-human TNF alpha (Adalimumab Biosimilar), BioXCell cat #SIM0001, lot #8024221F1; Heat-killed Candida albicans (HKCA), InvivoGen cat #tlrl-hkca, lot #6292-44-02; RPMI 1640 with L-glutamine and HEPES, Corning cat #10-041-CM; and Human IL-6 DuoSet ELISA, R and D Systems cat #DY206-05. Blood was drawn into heparin tubes from healthy volunteers. Whole blood cultures comprised of whole blood diluted with plain RPMI 1640 medium were set up in sterile 5.0 ml polypropylene snap cap culture tubes. One of the following treatments were added for 1 hour prior to either being left unstimulated or receiving stimulation with 1.5×10^6 cells heat-killed Candida albicans: medium alone (cells alone), 1 μg/ml IgG1 isotype control antibody alone, 1 μg/ml BFB759 alone, 1 μg/ml adalimumab alone, or one of two combination treatments of 1 μg/ml IgG1 isotype control antibody+0.5 μg/ml adalimumab or 1 μg/ml BFB759+0.5 μg/ml adalimumab. The final volume of each culture was 1.0 ml. Cultures were incubated for 24 hours at 37° C./5% CO2. Supernatants harvested from each culture in duplicate were frozen at −80° C. until assayed in duplicate for IL-6 levels by ELISA.

B1: 37E10_15B5: human anti-IL1RAP antibody BFB759 (i.e., 37E10_15B5), VH SEQ ID NO: 64, VL SEQ ID NO: 68 (antibody, V domains shown)
VH: QVQLVESGGGVVQPGRSLRLSCAASGFTFRSHGMHWVRQAPGKGLEWVAVIWYDGSSEYYADSVKGRFTISRDNSKNTLYLQMNSLRAEDTAVYYCARENVYGSGWFFDYWGQGTLVTVSS
VL: EIVMTQSPATLSVSPGERASLSCRASQSVGSNLAWYQQRPGQAPRLLIFGASTRATGIPARFSGSRSGTEFTLTISSLQSEDFALYYCQQYNNWPPWTFGQGTKLEIK
inhibition of IL1R1 / IL-1 signaling (IL-1β signaling; HEK-Blue IL-1β cells, antibody 1-10 pg/ml, IL-1β 0.5 ng/ml): potent inhibition
EC50 against IL-1β (IL-1β signaling; serial dilution of antibody, reporter assay): subnanomolar
competition for binding, bin (2) (recombinant human IL1RAP): competed with each other
EC50 against IL-1α (IL-1α signaling): subnanomolar
inhibition of IL-33 signaling (IL-33 signaling): partially inhibit
inhibition of IL-6 secretion [1]: inhibit IL-6 secretion

Reference: US20260008856A1, “METHODS OF TREATING DISEASE USING ANTI-IL1RAP ANTIBODIES AND ANTIBODY DRUG CONJUGATES” (Bluefin Biomedicine, Inc., priority 2022, published 2026)
